Reference: patent US20230210897A1

How the values were obtained:
Assay in all cases: cell-based or functional assay
[1] = biological target: wild-type TGFβRII on untransduced (UT) cord blood-derived NK cells (human) (UniProt P37173)
[2] = biological target: RBDNR receptor (truncated TGFβ dominant negative receptor) (human) (UniProt P37173)
[3] = biological target: NKA receptor (truncated TGFβ dominant negative receptor fused to DAP12) (human)
[4] = biological target: NKCT receptor (truncated TGFβ dominant negative receptor fused to a SynNotch receptor coupled to RELA/p65) (human) (UniProt P37173)

Chain of NKA receptor (truncated TGFβ dominant negative receptor fused to DAP12) (human) (chain, as listed by the source limits assumed, form in doubt): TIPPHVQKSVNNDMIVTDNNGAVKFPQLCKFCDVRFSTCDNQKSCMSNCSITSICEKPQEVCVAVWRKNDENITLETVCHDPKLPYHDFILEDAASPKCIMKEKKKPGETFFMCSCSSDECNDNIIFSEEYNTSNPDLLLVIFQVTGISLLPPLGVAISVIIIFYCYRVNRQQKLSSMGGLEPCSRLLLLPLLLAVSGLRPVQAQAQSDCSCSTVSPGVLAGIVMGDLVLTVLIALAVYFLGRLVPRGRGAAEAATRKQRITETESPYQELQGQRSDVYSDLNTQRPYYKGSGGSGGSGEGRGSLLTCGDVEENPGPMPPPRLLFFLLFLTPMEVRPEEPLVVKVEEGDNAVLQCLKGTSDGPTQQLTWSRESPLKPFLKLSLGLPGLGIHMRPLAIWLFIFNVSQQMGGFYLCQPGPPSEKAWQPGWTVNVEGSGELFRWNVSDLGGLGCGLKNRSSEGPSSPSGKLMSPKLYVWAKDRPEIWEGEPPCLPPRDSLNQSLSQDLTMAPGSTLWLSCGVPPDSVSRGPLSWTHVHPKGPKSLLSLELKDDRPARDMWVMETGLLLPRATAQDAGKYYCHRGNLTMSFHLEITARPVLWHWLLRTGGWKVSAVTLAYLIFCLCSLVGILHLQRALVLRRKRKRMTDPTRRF

For TGFβ (ligand), which phosphorylated Smad2/3 (Ser465/467) by flow cytometry in untransduced NK cells, 1 hour after 10 ng/mL TGFβ [1] is on record?
Its phosphorylated Smad2/3 (Ser465/467) by flow cytometry in untransduced NK cells, 1 hour after 10 ng/mL TGFβ is 73.9%.

And the protection from TGFβ-impaired cytolytic activity in vitro (TGFβ concentration at which protection is lost) [2]?
Its protection from TGFβ-impaired cytolytic activity in vitro (TGFβ concentration at which protection is lost) is greater than 50 ng/mL.

And the protection from TGFβ-impaired cytolytic activity in vitro (TGFβ concentration at which protection is lost) [3]?
Its protection from TGFβ-impaired cytolytic activity in vitro (TGFβ concentration at which protection is lost) is greater than 50 ng/mL.

And the protection from TGFβ-impaired cytolytic activity in vitro (TGFβ concentration at which protection is lost) [4]?
Its protection from TGFβ-impaired cytolytic activity in vitro (TGFβ concentration at which protection is lost) is greater than 50 ng/mL.
